Assay results published in patent US20260256936A1, “BIOACTIVE CONJUGATES, PREPARATION METHOD AND USE THEREOF” (priority 2023, published 2026).
Read-outs that look alike come from different tables or passages of the source.

Tests used:
Test in all cases: cell-based or functional assay
[1] = target: T1, B7H3 on B7H3-expressing cells (NCI-H358, NCI-H1048) (human, UniProt Q5ZPR3 29-534)
T1 sequence (looked up): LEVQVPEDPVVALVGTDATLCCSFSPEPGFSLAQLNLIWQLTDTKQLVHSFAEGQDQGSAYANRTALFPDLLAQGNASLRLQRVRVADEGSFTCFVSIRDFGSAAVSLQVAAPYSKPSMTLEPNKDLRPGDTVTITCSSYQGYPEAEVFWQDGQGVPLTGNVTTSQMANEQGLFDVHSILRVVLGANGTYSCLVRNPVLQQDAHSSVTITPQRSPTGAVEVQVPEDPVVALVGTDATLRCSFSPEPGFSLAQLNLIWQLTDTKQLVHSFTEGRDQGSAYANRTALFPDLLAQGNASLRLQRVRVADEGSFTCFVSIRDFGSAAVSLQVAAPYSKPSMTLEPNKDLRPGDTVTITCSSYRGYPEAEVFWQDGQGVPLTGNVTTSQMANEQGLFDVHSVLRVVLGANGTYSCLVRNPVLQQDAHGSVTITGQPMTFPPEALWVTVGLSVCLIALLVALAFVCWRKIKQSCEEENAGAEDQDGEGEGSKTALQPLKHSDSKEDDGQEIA

[2] = target: T2, CLL1 on CLL1-expressing cells (U937, HL60) (human, UniProt Q5QGZ9 1-265)
T2 sequence (looked up): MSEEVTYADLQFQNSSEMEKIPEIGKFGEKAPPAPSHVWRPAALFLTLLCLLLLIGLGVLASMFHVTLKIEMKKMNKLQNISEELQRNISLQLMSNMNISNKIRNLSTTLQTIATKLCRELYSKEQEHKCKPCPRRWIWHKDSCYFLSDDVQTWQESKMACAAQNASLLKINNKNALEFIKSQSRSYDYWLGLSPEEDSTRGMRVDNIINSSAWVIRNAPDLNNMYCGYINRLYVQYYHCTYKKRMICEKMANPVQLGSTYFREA

[3] = target: T2, CLL1 on CLL1-expressing cells (U937, …); remark: listed apart in the source
[4] = target: T2, CLL1 on CLL1-expressing cells (U937, …); remark: listed apart in the source
[5] = target: T2, CLL1 on CLL1-expressing cells (U937, …); remark: listed apart in the source
[6] = target: T2, CLL1 on CLL1-expressing cells (U937, …); remark: listed apart in the source

B1: ADC3-B (antibody, human IgG1, kappa, V domains shown)
VH: QVQLVQSGAEVKKPGSSVKVSCKASGYTFTNYVMHWVRQAPGQGLEWMGYINPYNDDVKYNEKFKGRVTITADESTSTAYMELSSLRSEDTAVYYCARWGYYGSPLYYFDYWGQGTLVTVSS
VL: EIVLTQSPATLSLSPGERATLSCRASSRLIYMHWYQQKPGQAPRPLIYATSNLASGIPARFSGSGSGTDFTLTISSLEPEDFAVYYCQQWNSNPPTFGQGTKVEIKR
modifications: conjugator-linker-payload on cysteine thiols after TCEP reduction; positions not given
EC50 (nM) direct cellular killing, NCI-H358 [1]: 0.1 nM | EC50 (nM) direct cellular killing, NCI-H1048 [1]: 0.2 nM

B2: ADC3-A (antibody, human IgG1, kappa, V domains shown)
VH: EVQLVQSGAEVKKPGASVKVSCKASGYSFTDYYMHWVRQAPGQGLEWIGRINPYAGAAFYSQNFKDRVTLTVDTSTSTAYLELSSLRSEDTAVYYCAIERGADLEGYAMDYWGQGTLVTVSS
VL: DIQMTQSPSSLSASVGDRVTITCRASQSVSTSSYNYMHWYQQKPGKPPKLLIKYASNLESGVPSRFSGSGSGTDFTLTISSLQPEDFATYYCQHSWEIPLTFGQGTKVEIKR
modifications: conjugator-linker-payload on cysteine thiols after TCEP reduction; positions not given
EC50 (nM) direct cellular killing, HL60 [2]: 10.9 nM | EC50 (nM) direct cellular killing, U937 [2]: 0.7 nM | EC50 (nM) direct cellular killing, HL60 [3]: 4.8 nM | EC50 (nM) direct cellular killing, HL60 [4]: 6.3 nM | EC50 (nM) direct cellular killing, U937 [4]: 0.8 nM | EC50 (nM) direct cellular killing, HL60 [5]: 1.4 nM | EC50 (nM) direct cellular killing, U937 [5]: 0.7 nM | EC50 (nM) direct cellular killing, HL60 [6]: 6.5 nM

B3: ADC3-15 (antibody, human IgG1, kappa, V domains shown)
VH: B2 VH
VL: B2 VL
modifications: conjugator-linker-payload on cysteine thiols after TCEP reduction; positions not given
EC50 (nM) direct cellular killing, HL60 [2]: 6.5 nM | EC50 (nM) direct cellular killing, U937 [2]: 0.3 nM
